Numbering of substitutions follows the chain as printed.
T1: human FcγRIIb extracellular domain with C-terminal His tag (human, UniProt P31994 43-217)
T1 construct: extracellular domain
T1 sequence (looked up): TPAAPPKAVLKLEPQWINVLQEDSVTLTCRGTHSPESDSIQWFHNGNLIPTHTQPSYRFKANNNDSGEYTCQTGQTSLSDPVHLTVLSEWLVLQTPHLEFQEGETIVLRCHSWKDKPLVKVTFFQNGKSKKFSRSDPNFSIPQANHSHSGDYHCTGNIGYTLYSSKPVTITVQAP

T2: human FcγRIIb extracellular domain with C-terminal His tag (human, UniProt P31994 43-217)
T2 construct: extracellular domain; also called FcgRIIb
T2 sequence (looked up): T1 sequence (looked up)

T3: human FcγRIIa type R extracellular domain with C-terminal His tag (human, UniProt P12318 34-217)
T3 construct: extracellular domain; also called FcγRIIaR; FcγRIIa(R)
T3 sequence (looked up): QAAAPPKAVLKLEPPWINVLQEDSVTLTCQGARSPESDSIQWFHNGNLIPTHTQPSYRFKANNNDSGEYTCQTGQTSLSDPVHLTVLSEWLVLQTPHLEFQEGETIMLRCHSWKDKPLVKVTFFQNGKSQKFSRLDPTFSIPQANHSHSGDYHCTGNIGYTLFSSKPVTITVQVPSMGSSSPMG

B1: IL6R-BP484/IL6R-L (antibody, human IgG1, kappa)
heavy: QVQLQESGPGLVKPSETLSLTCAVSGHSISHDHAWSWVRQPPGEGLEWIGFISYSGITNYNPSLQGRVTISRDNSKNTLYLQMNSLRAEDTAVYYCARSLARTTAMDYWGEGTLVTVSSASTKGPSVFPLAPSSKSTSGGTAALGCLVKDYFPEPVTVSWNSGALTSGVHTFPAVLQSSGLYSLSSVVTVPSSSLGTQTYICNVNHKPSNTKVDKKVEPKSCDKTHTCPPCPAPDLLGDDSVFLFPPKPKDTLMISRTPEVTCVVVDVAEDDGEVKFNWYVDGVEVHNAKTKPREEQYNSTYRVVSVLTVLHQDWLNGKEYKCKVSNKALPAPIEKTISKAKGQPREPQVYTLPPSRDELTKNQVSLTCLVKGFYPSDIAVEWESNGQPENNYKTTPPVLDSDGSFFLYSKLTVDKSRWQQGNVFSCSVMHEALHNHYTQESLSLSP
light: not shown
notes: copies: 2 + 2
B2: IL6R-BP509/IL6R-L (antibody, human IgG1, kappa)
heavy: B1 heavy with V266I, D271E, E274D, Y298D
light: not shown
notes: copies: 2 + 2
B3: IL6R-BP479/IL6R-L (antibody, human IgG1, kappa)
heavy: B1 heavy with V266I, V268L, D271E
light: not shown
notes: copies: 2 + 2
B4: IL6R-BP494/IL6R-L (antibody, human IgG1, kappa)
heavy: B1 heavy with D235E, D271E, Y298D, A332R
light: not shown
notes: copies: 2 + 2
B5: IL6R-BP505/IL6R-L (antibody, human IgG1, kappa)
heavy: B1 heavy with V266I, D271E, E274D
light: not shown
notes: copies: 2 + 2
B6: IL6R-BP504/IL6R-L (antibody, human IgG1, kappa)
heavy: B1 heavy with V266I, D271E, E274P
light: not shown
notes: copies: 2 + 2
B7: IL6R-BP483/IL6R-L (antibody, human IgG1, kappa)
heavy: B1 heavy with V268L, D271E
light: not shown
notes: copies: 2 + 2
B8: IL6R-BP262/IL6R-L (antibody, human IgG1, kappa)
heavy: B1 heavy with D235E, A269S, D271E
light: not shown
notes: copies: 2 + 2
B9: IL6R-BP481/IL6R-L (antibody, human IgG1, kappa)
heavy: B1 heavy with V266I, D271E
light: not shown
notes: copies: 2 + 2
B10: IL6R-BP269/IL6R-L (antibody, human IgG1, kappa)
heavy: B1 heavy with D235E, A269S, D271E, Y298D
light: not shown
notes: copies: 2 + 2
B11: IL6R-BP549/IL6R-L (antibody, human IgG1, kappa)
heavy: B1 heavy with D235E, A269G, D271E, A332R
light: not shown
notes: copies: 2 + 2
B12: IL6R-BP508/IL6R-L (antibody, human IgG1, kappa)
heavy: B1 heavy with V266I, D271E, E274P, Y298D
light: not shown
notes: copies: 2 + 2
B13: IL6R-2B002/IL6R-L (antibody, human IgG1, kappa)
heavy: B1 heavy with D239G, A269S, E270H, D271E, G273P
light: not shown
notes: IgG1 type
B14: IL6R-BP445/IL6R-L (antibody, human IgG1, kappa)
heavy: B1 heavy with V266I, D271E, A332R
light: not shown
notes: copies: 2 + 2
B15: IL6R-BP531/IL6R-L (antibody, human IgG1, kappa)
heavy: B1 heavy with V266I, A269G, D271E, Y298D, A332R, P398M
light: not shown
notes: copies: 2 + 2
B16: IL6R-BP506/IL6R-L (antibody, human IgG1, kappa)
heavy: B1 heavy with V266I, D271E, E274P, Y298D, A332R
light: not shown
notes: copies: 2 + 2
B17: IL6R-BP264/IL6R-L (antibody, human IgG1, kappa)
heavy: B1 heavy with A269S, D271E, Y298D, A332R
light: not shown
notes: copies: 2 + 2
B18: IL6R-BP555/IL6R-L (antibody, human IgG1, kappa)
heavy: B1 heavy with D235E, V266I, D271E, E274D, Y298D, A332R
light: not shown
notes: copies: 2 + 2
B19: IL6R-BP490/IL6R-L (antibody, human IgG1, kappa)
heavy: B1 heavy with D235E, V266I, D271E, A332R
light: not shown
notes: copies: 2 + 2
B20: IL6R-BP532/IL6R-L (antibody, human IgG1, kappa)
heavy: B1 heavy with V266I, A269S, D271E, Y298D, A332R, P398M
light: not shown
notes: copies: 2 + 2
B21: IL6R-BP537/IL6R-L (antibody, human IgG1, kappa)
heavy: B1 heavy with D235E, V266I, A269G, D271E, A332R
light: not shown
notes: copies: 2 + 2
B22: IL6R-BP534/IL6R-L (antibody, human IgG1, kappa)
heavy: B1 heavy with V266I, A269S, D271E, Y298D, A332R, P398L
light: not shown
notes: copies: 2 + 2
B23: IL6R-BP552/IL6R-L (antibody, human IgG1, kappa)
heavy: B1 heavy with V266I, D271E, E274D, Y298D, A332R
light: not shown
notes: copies: 2 + 2
B24: IL6R-BP480/IL6R-L (antibody, human IgG1, kappa)
heavy: B1 heavy with V268L, A269S
light: not shown
notes: copies: 2 + 2
B25: IL6R-BP507/IL6R-L (antibody, human IgG1, kappa)
heavy: B1 heavy with V266I, D271E, E274P, A332R
light: not shown
notes: copies: 2 + 2
B26: IL6R-BP553/IL6R-L (antibody, human IgG1, kappa)
heavy: B1 heavy with V266I, D271E, E274D, A332R
light: not shown
notes: copies: 2 + 2
B27: IL6R-BP535/IL6R-L (antibody, human IgG1, kappa)
heavy: B1 heavy with V266I, A269G, D271E, Y298D, A329G, A332R, P398M
light: not shown
notes: copies: 2 + 2
B28: IL6R-BP495/IL6R-L (antibody, human IgG1, kappa)
heavy: B1 heavy with D235E, A269G, D271E, Y298D, A332R
light: not shown
notes: copies: 2 + 2
B29: IL6R-BP268/IL6R-L (antibody, human IgG1, kappa)
heavy: B1 heavy with A269S, D271E, Y298D
light: not shown
notes: copies: 2 + 2
B30: IL6R-BP435/IL6R-L (antibody, human IgG1, kappa)
heavy: B1 heavy with A269S, E270D, D271E, Y298D, K328A, A332R, I334T
light: not shown
notes: copies: 2 + 2
B31: IL6R-BP501/IL6R-L (antibody, human IgG1, kappa)
heavy: B1 heavy with D235E, V266I, D271E
light: not shown
notes: copies: 2 + 2
B32: IL6R-BP426/IL6R-L (antibody, human IgG1, kappa)
heavy: B1 heavy with A332R
light: not shown
notes: copies: 2 + 2

Target: T1, human FcγRIIb extracellular domain with …
Experiment: SPR (Biacore), ratio of KDs

| Binder | KD(IIaH)/KD(IIb) | KD(IIaR)/KD(IIb) |
| --- | --- | --- |
| B1 | 241 | 17.1 |
| B2 | 444 | 29.2 |
| B3 | 268 | 16.1 |
| B4 | 821 | 38.6 |
| B5 | 514 | 20 |
| B6 | 658 | 18.5 |
| B7 | 231 | 16.8 |
| B8 | 375 | 17 |
| B9 | 350 | 20.5 |
| B10 | 637 | 19.6 |
| B11 | 696 | 35.9 |
| B12 | 962 | 26 |

Target: T2, human FcγRIIb extracellular domain with …
Experiment: SPR (Biacore), antibody captured, FcγR as analyte

| Binder | KD(IIb) of parent polypeptide/KD(IIb) of altered polypeptide |
| --- | --- |
| B13 | 3.3 fold vs IL6R-B3/IL6R-L |

Target: T3, human FcγRIIa type R extracellular …
Experiment: SPR (Biacore)

| Binder | Kd |
| --- | --- |
| B14 | 80 nM |
| B15 | 120 nM |
| B16 | 120 nM |
| B1 | 780 nM |
| B17 | 350 nM |
| B2 | 520 nM |
| B3 | 900 nM |
| B4 | 250 nM |
| B5 | 430 nM |
| B6 | 450 nM |
| B7 | 1300 nM |
| B18 | 160 nM |
| B19 | 110 nM |
| B20 | 94 nM |
| B8 | 2000 nM |
| B9 | 400 nM |
| B10 | 2200 nM |
| B21 | 270 nM |
| B22 | 91 nM |
| B11 | 570 nM |
| B12 | 540 nM |
| B23 | 97 nM |
| B24 | 6300 nM |
| B25 | 100 nM |
| B26 | 86 nM |
| B27 | 92 nM |

Target: T4, human FcγRIa extracellular domain with C-terminal His tag (human, UniProt P12314 16-292)
T4 construct: extracellular domain
Experiment: SPR (Biacore)

T4 sequence (P12314 16-292): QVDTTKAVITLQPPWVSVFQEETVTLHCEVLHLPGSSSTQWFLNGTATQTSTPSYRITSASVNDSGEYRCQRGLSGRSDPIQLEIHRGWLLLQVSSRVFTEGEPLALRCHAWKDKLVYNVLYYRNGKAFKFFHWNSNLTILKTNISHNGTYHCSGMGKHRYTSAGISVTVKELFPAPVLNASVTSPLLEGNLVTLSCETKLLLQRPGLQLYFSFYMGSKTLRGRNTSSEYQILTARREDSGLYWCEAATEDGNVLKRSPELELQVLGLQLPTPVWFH

| Binder | Kd |
| --- | --- |
| B14 | 2 nM |
| B15 | 9.4 nM |
| B28 | 8.3 nM |
| B16 | 3.1 nM |
| B1 | 0.82 nM |
| B17 | 7.4 nM |
| B2 | 1.1 nM |
| B3 | 5.3 nM |
| B29 | 4.5 nM |
| B4 | 3.9 nM |
| B30 | 1 nM |
| B5 | 1.1 nM |
| B6 | 1.4 nM |
| B7 | 1.3 nM |
| B18 | 9.4 nM |
| B19 | 4.5 nM |
| B31 | 2.1 nM |
| B20 | 12 nM |
| B8 | 10 nM |
| B9 | 1 nM |
| B10 | 14 nM |
| B32 | 1 nM |
| B21 | 29 nM |
| B22 | 9.3 nM |
| B11 | 18 nM |
| B12 | 1.4 nM |
| B23 | 3.2 nM |
| B25 | 2.6 nM |
| B26 | 3.4 nM |
| B27 | 11 nM |

Target: T1, human FcγRIIb extracellular domain with …
Experiment: SPR (Biacore)

| Binder | Kd |
| --- | --- |
| B14 | 2.6 nM |
| B15 | 3.8 nM |
| B28 | 9.7 nM |
| B16 | 3.4 nM |
| B1 | 46 nM |
| B2 | 18 nM |
| B3 | 56 nM |
| B29 | 92 nM |
| B4 | 6.6 nM |
| B5 | 21 nM |
| B6 | 24 nM |
| B7 | 78 nM |
| B18 | 4.1 nM |
| B19 | 2.4 nM |
| B31 | 25 nM |
| B20 | 3.2 nM |
| B8 | 120 nM |
| B9 | 19 nM |
| B10 | 110 nM |
| B21 | 6.9 nM |
| B22 | 3 nM |
| B11 | 16 nM |
| B12 | 21 nM |
| B23 | 2.6 nM |
| B24 | 200 nM |
| B25 | 2.9 nM |
| B26 | 3.1 nM |
| B27 | 4 nM |

Target: T3, human FcγRIIa type R extracellular …
Experiment: SPR (Biacore), parent IL6R-B3/IL6R-L

| Binder | KD(IIaR) parent/KD(IIaR) altered polypeptide |
| --- | --- |
| B1 | 1.4 |
| B2 | 2.1 |
| B3 | 1.2 |
| B4 | 4.3 |
| B5 | 2.6 |
| B6 | 2.4 |
| B7 | 0.8 |
| B8 | 0.5 |
| B9 | 2.8 |
| B10 | 0.5 |
| B11 | 1.9 |
| B12 | 2 |

Target: T1, human FcγRIIb extracellular domain with …
Experiment: SPR (Biacore), parent IL6R-B3/IL6R-L

| Binder | KD(IIb) parent/KD(IIb) altered polypeptide |
| --- | --- |
| B1 | 67.8 |
| B2 | 174 |
| B3 | 55.5 |
| B4 | 471 |
| B5 | 145 |
| B6 | 128 |
| B7 | 39.7 |
| B8 | 25.8 |
| B9 | 160 |
| B10 | 27.4 |
| B11 | 196 |
| B12 | 149 |

From patent publication US20220389118A1 (Chugai, published 2022)
